Source: patent US20240409637A1 (Regeneron, published 2024)

How the values were obtained:
[1] = target: human CD8 alpha and beta subunit on JRT3.T3/AP1-Luc/CD28/CD8AB/1G4AB clone 18 reporter T cells (human, UniProt P01732 22-235; P10966 22-210); experiment: cell-based or functional assay
[2] = target: T1, cynomolgus monkey CD8 on cynomolgus monkey T cells (cynomolgus monkey); experiment: flow cytometry on cynomolgus monkey T cells
Procedure: (§1) mAb1 and isotype control antibodies were 4 fold serially diluted in stain buffer (PBS containing 2% FBS) in either an 8-point titration for human CD8 positive T cells or 11 point titration for cynomolgus monkey T cells, starting at a concentration of 200 nM. A sample without primary antibody, stain buffer only, was also included as a control. Antibody titrations were plated out, 50 ul/well, into V-bottom microplates. Primary human and cynomolgus monkey T cells were stained for 15 minutes with LIVE/DEAD™ Fixable Violet Dead Cell Stain (Invitrogen) diluted 1:1000 in PBS. Cells were washed twice, and resuspended in PBS containing 2% FBS. To gate out CD4+ monkey T cells a CD4 antibody from BD Biosciences, that reacts with cynomolgus CD4+ T cells, was incubated with monkey T cells for 30 min on ice and cells were subsequently washed once with stain buffer. Human CD8 positive and monkey T cells in stain buffer were plated such that 50 ul of cell suspension, containing approximately 150,000 T cells, were added into wells of the 96-well V-bottom microplate containing the titrated antibodies. […] Samples were analyzed with the FlowJo10 software such that only viable, CD8 positive, single cells were evaluated for antibody binding.

[3] = target: T2, human CD8 on cells (primary human CD8 positive T cells); T cells of mice expressing hCD8; human PBMC-derived … (human, UniProt P01732 22-235; P10966 22-210); experiment: flow cytometry on primary human CD8 positive T cells
T2 construct: This is native CD8 on cells
T2 sequence (P01732 22-235, chain 1 of 2): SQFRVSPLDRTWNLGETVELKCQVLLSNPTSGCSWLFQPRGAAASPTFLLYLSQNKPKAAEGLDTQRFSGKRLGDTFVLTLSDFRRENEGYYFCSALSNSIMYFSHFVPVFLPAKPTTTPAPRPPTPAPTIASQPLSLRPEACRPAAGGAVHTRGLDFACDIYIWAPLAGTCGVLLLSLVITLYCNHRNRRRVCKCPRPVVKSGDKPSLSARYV
T2 sequence (P10966 22-210, chain 2 of 2): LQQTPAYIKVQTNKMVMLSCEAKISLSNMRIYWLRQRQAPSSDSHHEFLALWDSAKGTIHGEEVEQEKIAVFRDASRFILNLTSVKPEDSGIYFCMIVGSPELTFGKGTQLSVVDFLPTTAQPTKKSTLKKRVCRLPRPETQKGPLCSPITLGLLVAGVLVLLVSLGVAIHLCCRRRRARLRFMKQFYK
Procedure: Recombinant human IL-2 (50 IU/ml) was supplemented into culture media 72 hours post CD3/CD28 Dynabead incubation. When cells had expanded to the necessary cell number for flow cytometry analysis, the Dynabeads were removed by magnetic separation and cells were immediately used to determine the binding of CD8 antibodies or isotype controls.
as §1, with “buffer.” for “buffer. Human CD8 positive and monkey T cells in stain buffer were plated such that 50 ul of cell suspension, containing approximately 150,000 T cells, were added into wells of the 96-well V-bottom microplate containing the titrated antibodies.”

[4] = target: T2, human CD8 on cells (primary human CD8 …); experiment: flow cytometry on primary human CD8 positive T cells, APC anti-mouse IgG secondary
Procedure: as §1

[5] = target: T3, hCD8α with a C-terminal myc-myc-polyhistidine tag (hCD8α.mmh, REGN3940) (human, UniProt P01732 22-182); experiment: SPR (Sierra Sensors MASS-1), mAb captured by anti-mouse Fc, hCD8α.mmh as analyte, 25°C
T3 construct: not shown: C-terminal myc-myc-polyhistidine tag
T3 sequence (P01732 22-182 limits assumed): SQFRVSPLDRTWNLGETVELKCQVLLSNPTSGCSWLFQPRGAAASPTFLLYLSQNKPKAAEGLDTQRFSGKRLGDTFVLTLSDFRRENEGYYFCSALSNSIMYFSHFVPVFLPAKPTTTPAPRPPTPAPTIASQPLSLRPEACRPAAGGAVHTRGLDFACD
Procedure: Equilibrium dissociation constants (KD values) for hCD8α.mmh binding to purified anti-CD8 mAbs were determined using a real-time surface plasmon resonance biosensor using a Sierra Sensors MASS-1 high-capacity amine sensor surface was derivatized by amine coupling with a polyclonal goat anti-mouse Fc antibody (GE, #BR-1008-38) to capture purified anti-CD8 mAbs. SPR binding studies were performed in a buffer composed of 0.01M HEPES pH 7.4, 0.15M NaCl, 3 mM EDTA, 0.05% v/v Surfactant P20 (HBS-ET running buffer). Different concentrations of hCD8α with a C-terminal myc-myc-polyhistidine tag (hCD8α.mmh, REGN3940) prepared in HBS-ET running buffer (ranging from 300 nM to 3.7 nM, 3-fold dilutions) were injected over the anti-CD8 mAb captured surface at a flow rate of 50 μL/minute. Association of hCD8α.mmh to the captured monoclonal antibody was monitored for 4 minutes and the dissociation of hCD8α.mmh in HBS-ET running buffer was monitored for 10 minutes. All of the binding kinetics experiments were performed at 25° C. Kinetic association (kₐ) and dissociation (kd) rate constants were determined by fitting the real-time sensorgrams to a 1:1 binding model using Scrubber 2.0c curve fitting software. Binding dissociation equilibrium constants (KD) and dissociative half-lives (t½) were calculated from the kinetic rate constants as: […]

[6] = target: T1, cynomolgus monkey CD8 on cynomolgus …; experiment: flow cytometry on cynomolgus monkey T cells (CD4+ gated out), APC anti-mouse IgG secondary
Procedure: as §1

[7] = target: T2, human CD8 on cells (primary human CD8 …); experiment: flow cytometry (geometric MFI of APC, secondary APC goat anti-mouse IgG) on primary human CD8 positive T cells; four-parameter fit; unit taken from the axis 'Concentration of Antibody Log (M)' [panel Human CD8+ T-cells, table under the plot]
Procedure: as §1

[8] = target: T1, cynomolgus monkey CD8 on cynomolgus …; experiment: flow cytometry (geometric MFI of APC, secondary APC goat anti-mouse IgG) on cynomolgus monkey T cells gated on CD8 positive cells; four-parameter fit; unit taken from the axis 'Concentration of Antibody Log (M)' [panel Cynomolgus Monkey T-cells, table under the plot]
Procedure: as §1

Sequence of human CD8 alpha and beta subunit on JRT3.T3/AP1-Luc/CD28/CD8AB/1G4AB clone 18 reporter T cells (P01732 22-235, chain 1 of 2): as the sequence (P01732 22-235, chain 1 of 2) above
Sequence of human CD8 alpha and beta subunit on JRT3.T3/AP1-Luc/CD28/CD8AB/1G4AB clone 18 reporter T cells (P10966 22-210, chain 2 of 2): as the sequence (P10966 22-210, chain 2 of 2) above

B1: mAb1 (anti-CD8 monoclonal antibody) (antibody, V domains shown)
VH: QVQLVESGGGVDQPGRSLRLSCAASGFIFSNYGIHWVRQAPGKGLEWVAVIWYDGSNKYFEDSVKGRFNISRDNSKNIVYLQMNSLRAEDTAVYFCARSYDMLTGSGDYYGLDVWGQGTTVTVSS
VL: DIQMTQSPSSLSASVGDRVTITCRASQDITNYLAWFQQKPGKAPKSLIYGASSLQSGVPSKFSGSGSGTDFTLTISSLQPEDFATYYCQQYNNYPLTFGGGTKVEIK
notes: It was captured by anti-mouse Fc in SPR and detected with anti-mouse IgG in flow cytometry; It is tied here because mAb1 is the only exemplary antibody; also called H2aM25428N; mAb1-L1
[1]
  IC50 [M], reduction of AP1-luciferase activity in CD8 T cell/APC luciferase assay: 1.2e-09 M
[2]
  Fold Change (MFI compared to isotype control at 25 nM): 1480 fold
[3]
  Fold Change (MFI compared to isotype control antibody at 25 nM): 2780 fold
[4]
  EC50: 0.37 nM
[5]
  Kd: 32.6 nM
  koff: 0.00519 s⁻¹
  kon: 159000 M⁻¹ s⁻¹
  t1/2: 2.2 min
[6]
  EC50: 0.33 nM
[7]
  EC50: 0.369 nM
[8]
  EC50: 0.329 nM
